Reference: the DeepSol protein solubility set

Test: soluble on expression in E. coli; label from the status in PepcDB or PDB records

| Sequence | soluble on expression in E. coli |
| --- | --- |
| MSLAQGDTEVPTLYLWKTGPWGRCMGDDCGPGGIQTRAVWCAHVEGWTTLHTNCKQAVRPSNQQNCFKVCDWHKELYDWRLGTWDRCQPVISKSLEKSRECVKGEEGIQVREIMCIQKDKDIPAEDIICEYFEPKPLLEQACLIPCQKDCMVSEFSPWSECSRTCGSGLQHRTRHVVAPPQYGGSGCPNLTEFQVCQSNPCEEDESLYSLQVGPWSACSVPHTRQARQARRRGKNKEREKERGKAVKDPEARELIKKKRNRNRQNRQENRYWDIQIGYQTRDVTCLNRTGKSADLSFCQQERLPMTFQSCVITKECQVSEWLEWSPCSKTCHDVTSPTGTRVRTRTITQFPIGSEKECPALEEKEPCVSQGDGAVLCATYGWRTTEWTECHVDPLLSQQDKRRANQTALCGGGVQTREIYCIQTNDNMLSHGNTEGHHHHHH | not soluble |
| MFPCLCTLKILTFQPKFQKIHDEMKALKAAGKQDEFAKKFVTKDAIFMGPLHEPANVTEAAKFAKSEMMAAVSKGEFNITIDEITPIGDVVIERCTIHAKVASGDKTGWSLCVWVKDGGAWKIRNSCTTFKVVPSA | not soluble |
| LHRYSEVLGLPVICTADGKNLGTIKDIIFCPKEKSVVAFLIECKGYNRRKKVVFASDVLSLGRDALIVNDADDVRDLKKVLHRPEFKDKGDILGLPIYTKNGEDLGTAKDVLFDLKHGKIDGIEVSDGLLQDIVKGRSVLPLIGKVEFGEENILVDNEAVEEMMETGGGIKNLIEGNKKVQRKG | not soluble |
| MIRLILILINILFCHYLYALDCQKRLFDISINEKLSIQESLDELAKYCSFSIIVKDKIAKEKLETLQNSVNIHQMSLDEIFNFFIKEHDLSYDFDGKILRISGINTKIFKISYITSIREGQSITKASVDAKPRQSEYSGSFDDAEDNMIKSMEKFDFWQNIEKEIIVLLKNSHEDYEAKTPIINPNAGLIIVTGTNSQLKSVKNYLQKLENRLKKQVIIDVSILAVSLNESHSSGINWQNFNIGLNSQVNNENSFIQFQNGQGFVKNLGLRANLNFDSIINFLSQNGKTSVLSNPKLMALNNQQAIISVGDTINYQVKESSKGTENGTTVSESYNNYSIFVGILLNILPEISDDGKIMLRINPSLSDFKYPEDNKRQKEPRTIAPDTIQKKLSSVVQVENNQTLILGGLISHDKSNEKNSINFLSKIPILGSLFKGEVLNSKATEIVFIITPSIVDSVNAPSLKDLGFKHYELEHHHHHH | not soluble |
| MAEKNHQQQERLPGNPFFPSRSNAGSSFDMPETPHLIDSLTSQIDEFTIQSIIDTQRQSLKRFEKTNEMLMNCAQLGDRRIEKAKRDSVGHKETILQMKTDLEFIFKKIRMFKTVLSSKYPEVYAEVSAELTPKRSEEDE | not soluble |
| MGSDKIHHHHHHMKFYEDGNIPEIPNMYFIYGDGGTGKTSLLKQLKGHKFVFSFDMSSNVLIGDKDVDVVIFEHNDAPNIQAMVEECIIRAIQNAKYQVIVLDNVTALQNLVLENIDNAAKDNRQNYQKLQLWFRDLGTILKESGKTIYATAHQLDNGSSGISGEGRFQADMNEKTFNAFTSMFDLVGRIYLAAGERMIDLDPEKGNHAKNRLDDRKLIKANELIQSEKGEK | not soluble |
| MCMHLSSPALPIGGFSYSQGLEAAIELGLVHDEASTLAWIESQLVTVMARAEAPLWLLFEAWRAGDDAAAHGWNQWFHASRETRELRQETEQMGRSLARLAQELGWGTAATRAAVAALRPATLPAVHACACAMWALPREAGLGAYVFSWLENQVAAAIKGVPLGQMAGQRMLERLRAGLPAVLADARARAGATPPRLDTFAPQYALVSARHETQFSRLFRSAAALEHHHHHH | not soluble |
| MKVAGVDEAGRGPVIGPLVIGVAVIDEKNIERLRDIGVKDSKQLTPGQREKLFSKLIDILDDYYVLLVTPKEIDERHHSMNELEAEKFVVALNSLRIKPQKIYVDSADVDPKRFASLIKAGLKYEATVIAEHKADAKYEIVSAASIIAKVTRDREIEKLKQKYGEFGSGYPSDPRTKEWLEEYYKQYGDFPPIVRRTWETARKIEERFRKNQLTLDKFLK | soluble |
| MSLTAYMDHKNLANEVIDDARAREITDGVHRVLDRIAAAEEQAGREAGSVRLLAATKTRDIGEIMAAIDAGVRMIGENRPQEVTAKAEGLARRCAERGFSLGVAGAAPDAAAEHIPFHLIGQLQSNKIGKVLPVVDTIESVDSIDLAEKISRRAVARGITVGVLLEVNESGEESKSGCDPAHAIRIAQKIGTLDGIELQGLMTIGAHVHDETVIRRGFSHLRKTRDLILASGEPGTDRCRELSMGMTGDMELAIAEGSTIVRVGTAIFGERAFIEGHHHHHH | soluble |
